This note sets out measurements from the supplement of paper PMC10567573.

This data set can be described thus: protein stability index of a GFP-peptide fusion (GPS, HEK-293T) (PSI 1-6); higher = more stable.
[1] abbreviates: treatment: DMSO, c terminus: a fixed tail appended.
The mark [2] stands for this setting: treatment: MLN4924 1 uM, 8 h, c terminus: a fixed tail appended.
Where [3] appears, read: treatment: DMSO, c terminus: native.
Where [4] appears, read: treatment: MLN4924 1 uM, 8 h, c terminus: native.

± gives the standard deviation.
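Also: 24-mer peptide tiles fused after GFP, lentivirally expressed, FACS-sorted into six equal bins by GFP/DsRed ratio, decoded by Illumina sequencing, PSI is the read-weighted mean bin number.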

RSQYEALVETNRREVEQWFATQTE [KRT34]: the protein stability index is, setting by setting: under setting [1], 4.29 ± 0.25; under setting [2], 4.33 ± 0.33.

RSSPDDLKALTRNVNRLNESFRDL [SCARA5]: the protein stability index came to 3.95 ± 0.34 under setting [1] and 3.88 ± 0.32 under setting [2].

Consider RTCTAPLDRLKVLMQVHASRSNNM [SLC25A25], for which the protein stability index worked out at 2.68 ± 0.2 under setting [1] and 2.81 ± 0.21 under setting [2].

Sequence RTHTGEQPYTCSICRRNFSRRSSL [ZNF75A] returned a protein stability index under setting [1] of 3.19 ± 0.44 and a protein stability index under setting [2] of 3.67 ± 0.47.

Regarding RTSLSSGATVRSFSINSRLASSLG [CDC14A], the protein stability index reads like this: under setting [1], 2.76 ± 0.34; under setting [2], 2.99 ± 0.48.

For RTSTFDPSHSDNLLHGLNLLWRKQ [KLHL14], the protein stability index was found to be 2.96 ± 0.17 under setting [1] and 2.94 ± 0.15 under setting [2].

In turn, RVDQDKDKDCSLDCAGSPQKPLCA [SMOC2] came in with a protein stability index under setting [1] of 5.39 ± 0.34 and a protein stability index under setting [2] of 5.31 ± 0.32.

Regarding RYISMSVWTSPRRLVELAGQSLLK [PRAME], the protein stability index was 2.89 ± 0.1 under setting [1] and 2.96 ± 1.2 under setting [2].

With RYLADLLPSVFGSLRDSGYFYDPI [RSPH3], the protein stability index by setting is: under setting [1], 2.55 ± 0.49; under setting [2], 2.6 ± 0.66.

As to SAGGSRTPAMSSSSSSRVLLRQQL [TFE3], the protein stability index by setting is: under setting [1], 3.45 ± 0.24; under setting [2], 3.32 ± 0.19.

In the case of SASSPASVGDPCGGAICGGPDHRL [SLC25A25], the protein stability index runs as follows: under setting [1], 4.43 ± 0.23; under setting [2], 4.58 ± 0.22.

With SATALYRTDYSGRGELSARQMHLA [RAD51], the protein stability index is, setting by setting: under setting [1], 3.26 ± 0.19; under setting [2], 3.33 ± 0.21.

As for SDPENWDRKLHSRPRKLYKHSSTS [BTBD10], the protein stability index is, setting by setting: under setting [1], 3.77 ± 0.27; under setting [2], 3.94 ± 0.24.

With SEDRRSRHCPYLDTINRSVLDFDF [USP39], the protein stability index runs as follows: under setting [1], 3.18 ± 0.074; under setting [2], 3.44 ± 0.3.

As for SEFRALQFSLMLCAFVGALGGAAF [SPNS1], the protein stability index runs as follows: under setting [1], 3.14 ± 0.048; under setting [2], 3.04 ± 0.79.

Sequence SEKETMQFLNDRLASYLEKVRQLE [KRT33B] displayed a protein stability index under setting [1] of 2.55 ± 0.12 and a protein stability index under setting [2] of 2.66 ± 0.28.

As for SEYRSDIINAKSNDGWTPLHVAAH [ASB7], the protein stability index is, setting by setting: under setting [1], 3.19 ± 0.38; under setting [2], 3.27 ± 0.11.

Consider SFPATLETQEQDVDLVQKYLEKYY [MMP1], for which the protein stability index is, setting by setting: under setting [1], 3.82 ± 0.12; under setting [2], 4.09 ± 0.2.

For SFQPECSMKLTPLVLEVFGNEIS [VDR], the protein stability index reads like this: under setting [3], 2.23 ± 0.33; under setting [4], 2.41 ± 0.14.

On to SGPEGNLNQIVTEPDANFPQFLHE [FAM104B], for which the protein stability index is, setting by setting: under setting [1], 4.81 ± 0.15; under setting [2], 4.93 ± 0.16.

Consider SGRRNWCSYVVTRTISCHVQNGTY [EMID1], for which the protein stability index runs as follows: under setting [1], 2.12 ± 0.41; under setting [2], 1.93 ± 0.37.

The sequence SGTTLISVIVLDINDNAPTFQSSV [PCDHGC5] registered a protein stability index under setting [1] of 2.96 ± 0.28 and a protein stability index under setting [2] of 2.64 ± 0.63.

Consider SHRSNLIRHQRIHTGEKPYTCHEC [ZNF263], for which the protein stability index under setting [1] was found to be 3.16 ± 0.26 and the protein stability index under setting [2] worked out at 3.49 ± 0.23.

For SIFYDLPQGSGFCLGQLNLEQRSE [SMAD6], the protein stability index by setting is: under setting [1], 3.21 ± 0.21; under setting [2], 3.45 ± 0.25.

The sequence SKLSLLLNDISRKSEGLSGRVLRK [TRIP13] had a protein stability index under setting [1] of 2.82 ± 0.28 and a protein stability index under setting [2] of 2.82 ± 0.31.

On to SKNEDRGEEEAESSISSTSNEQLK [ZMYND11], for which the protein stability index runs as follows: under setting [1], 5.33 ± 0.63; under setting [2], 5.49 ± 0.21.

As for SKNLIYRDVKPENFLIGRQGNKKE [CSNK1G1], the protein stability index amounted to 4.26 ± 0.22 under setting [1] and 4.28 ± 0.18 under setting [2].

Consider SKPKNSVWKRLKSPFRKKKDSVT [RIT1], for which the protein stability index stood at 3.55 ± 0.49 under setting [3] and 3 ± 0.43 under setting [4].

For the sequence SKYVKLNVGGALYYTTMQTLTKQD [KCTD10], the protein stability index turned out to be 2.15 ± 0.25 under setting [1] and 2.44 ± 0.33 under setting [2].

In the case of SLFSLLIAAAVYIMDTVGNIWVCY [SLC19A2], the protein stability index is, setting by setting: under setting [1], 2.94 ± 0.41; under setting [2], 3.03 ± 0.72.

Take SLIEDLQRELEIPEQQVDMHDMLL [ZNF449]: the protein stability index stood at 3.56 ± 0.35 under setting [1] and 3.51 ± 0.34 under setting [2].

With SLKGSLSVEEQLSLISGCPNIQEA [CRYL1], the protein stability index was 4.18 ± 0.3 under setting [1] and 4.12 ± 0.36 under setting [2].

As for SLPRDRVLGFLIENFKGLAIPYLE [VPS39], the protein stability index came to 3.24 ± 0.26 under setting [1] and 2.92 ± 0.49 under setting [2].

SLQTGNHSNGPTDLSMKGGASTTS [NOL4L]: the protein stability index under setting [1] was determined as 4.12 ± 0.25 and the protein stability index under setting [2] worked out at 4.31 ± 0.27.

For SLSGVMLTDVSPEPLQALLERASA [PRAME], the protein stability index by setting is: under setting [1], 3.61 ± 0.4; under setting [2], 3.51 ± 0.31.

SLYRDIRDIQDENQLLVADVKRLG [STX11]: the protein stability index reads like this: under setting [1], 3.67 ± 0.33; under setting [2], 3.58 ± 0.22.

Take SMEGVRWAFSCGTWLPSRAEWLLA [AASDHPPT]: the protein stability index by setting is: under setting [1], 2.65 ± 0.57; under setting [2], 2.79 ± 0.52.

As to SMEIYGSAVADKLDNSRSILKRRY [CTDNEP1], the protein stability index is, setting by setting: under setting [1], 3.28 ± 0.22; under setting [2], 3.71 ± 0.41.

For the sequence SNANYSVKKCIFLLFINHRLVEST [MLH1], the protein stability index reads like this: under setting [1], 3.35 ± 0.46; under setting [2], 3.25 ± 1.2.

For the sequence SNVRGSLNVNLNSVVLRRARGGAV [DUSP5], the protein stability index is 3.74 ± 0.24 under setting [1] and 4.1 ± 0.29 under setting [2].

With SPFAQELLDDGQQASPYHPGSCGA [ELF3], the protein stability index is 4.83 ± 0.31 under setting [1] and 5.04 ± 0.16 under setting [2].

In the case of SPGELEEDLLLPGACPGADEAGGG [WEE1], the protein stability index under setting [1] was found to be 5.42 ± 0.24 and the protein stability index under setting [2] worked out at 5.5 ± 0.12.

Consider SPLHLVQMPPVIVETARSHQRSSS [PI4K2A], for which the protein stability index runs as follows: under setting [1], 4.22 ± 0.18; under setting [2], 4.24 ± 0.2.

Consider SPPVMVAGGRVFVLPCIQQIQRIS [FLOT1], for which the protein stability index reads like this: under setting [1], 2.15 ± 0.5; under setting [2], 1.96 ± 0.27.

As for SPVNMVTVAMVAGQCEFAHILHS [ZNF649], the protein stability index runs as follows: under setting [3], 2.08 ± 0.19; under setting [4], 1.87 ± 0.25.

Take SQILQNKKHKNSQLDKNSEVYQEV [FAM98B]: the protein stability index runs as follows: under setting [1], 4.46 ± 0.42; under setting [2], 4.81 ± 0.067.

As for SQLSMKAGLENTVAETECRYALQL [KRT13], the protein stability index by setting is: under setting [1], 3.37 ± 0.2; under setting [2], 3.35 ± 0.25.

In the case of SQPGNAVIDKETIDLLAFTSVAEL [SDE2], the protein stability index is, setting by setting: under setting [1], 3.43 ± 0.3; under setting [2], 3.46 ± 0.32.

For SQSETSSAVSTPSPVTRTRSLSAC [DLC1], the protein stability index reads like this: under setting [1], 4.89 ± 0.23; under setting [2], 4.87 ± 0.14.

For SQYQCENGVSGPSQDLLPPPNPYP [TBX5], the protein stability index by setting is: under setting [1], 4.75 ± 0.16; under setting [2], 4.64 ± 0.14.

As for SRAANQEQRANDLEQIMESVKSKI [CEP70], the protein stability index was 4.44 ± 0.22 under setting [1] and 4.49 ± 0.14 under setting [2].

Regarding SRAILQRVQAAAFGPGQTLLSSVH [ALKBH7], the protein stability index amounted to 2.72 ± 0.14 under setting [1] and 2.65 ± 0.35 under setting [2].
